This note sets out measurements from publication PMC7943604.

Assay [1] has as its target COPY^o2 (Atto532-stathmin-Atto647N). As to the kind of experiment: stopped-flow fluorescence (sensitized emission of the FRET sensor); COPY^o2 or phosphorylated COPY^o2 constant at 200 nM, tubulin titrated; dissociation at 200 nM COPY^o2 and 4 µM tubulin by displacement with 60 µM unlabeled stathmin; 25 °C; 80 mM PIPES pH 6.8, 75 mM KCl, 2 mM MgCl2, 20 mM β-mercaptoethanol, 60 µM GTP.

The target in assay [2] is phosphorylated COPY^o2. The description is as above.

By stoichiometry N is commonly meant the number of molecules, sites or subunits per partner or assembly. Take “tubulin (αβ-heterodimer) (from UniProt P02550 1-451; P02554 1-445) (complex)”: in assay [1], the KD, high affinity site was determined as 0.03 µM; the KD, low-affinity site was 2 µM; the koff, high affinity site was found to be 0.048 s⁻¹; the koff, low-affinity site came out at 1.86 s⁻¹. Besides, in assay [1], the kon, high affinity site is 1.6e+06 M⁻¹ s⁻¹; the kon, low-affinity site is 900000 M⁻¹ s⁻¹; the stoichiometry N is 2. Moreover, in assay [2], the KD, high affinity site worked out at 610 µM; the KD, low-affinity site came out at 12 µM; the koff, high affinity site worked out at 8 s⁻¹; the koff, low-affinity site was determined as 2.3 s⁻¹. Moreover, in assay [2], the kon, high affinity site came out at 12800 M⁻¹ s⁻¹ and the kon, low-affinity site came out at 170000 M⁻¹ s⁻¹.
